In US20260242419A1, “A CYCLIC PEPTIDE FOR TRAPPING INTERLEUKIN-1 BETA” (Merck Sharp & Dohme LLC, priority 2023, published 2026):
Starred links: 1 amine or outer side, 2 acyl side, 3 side chain; linkers in the order of their positions; H or OH if unused. Non-standard residues stand in square brackets, D forms with d. F4bcpA = 3-[4-[(2S)-2-amino-2-carboxy-ethyl]phenyl]bicyclo[1.1.1]pentane-1-carboxylic acid, O=C([C@H](Cc1ccc(C23CC(C(=O)[*:3])(C2)C3)cc1)N[*:1])[*:2]; 3Pal4CO2H = 5-[(2S)-2-amino-2-carboxy-ethyl]pyridine-2-carboxylic acid, O=C([C@H](Cc1ccc(C(=O)[*:3])nc1)N[*:1])[*:2]; dPro(4R-(4-pyridylmethyl)) = O=C(O)[C@H]1C[C@@H](Cc2ccncc2)CN1; Ala(piperidin-4-yl) = O=C([C@H](CC1CCN([*:3])CC1)N[*:1])[*:2]; Trp(βS-Me,4-F) = C[C@@H](c1c[nH]c2cccc(F)c12)[C@H](N)C(=O)O; Bip(4'-COOH) = N[C@@H](Cc1ccc(-c2ccc(C(=O)O)cc2)cc1)C(=O)O; Ala(1-bicyclo(1.1.1)pentyl) = N[C@@H](CC12CC(C1)C2)C(=O)O; dPro(4R-Bzl(4-F)) = O=C(O)[C@H]1C[C@@H](Cc2ccc(F)cc2)CN1; Ala(morpholin-4-yl) = N[C@@H](CN1CCOCC1)C(=O)O; Ala(piperazin-1-yl) = N[C@@H](CN1CCNCC1)C(=O)O; Ala(pyrimidin-5-yl) = N[C@@H](Cc1cncnc1)C(=O)O; Phe(4-COOH) = N[C@@H](Cc1ccc(C(=O)O)cc1)C(=O)O; Pro(cis-4-F) = O=C(O)[C@@H]1C[C@H](F)CN1; cisHyp = O=C(O)[C@@H]1C[C@H](O)CN1; d(αMeD) = C[C@@](N)(CC(=O)O)C(=O)O; 4Pal = N[C@@H](Cc1ccncc1)C(=O)O; αMeS = C[C@](N)(CO)C(=O)O; Dab = NCC[C@H](N)C(=O)O; Dap = NC[C@H](N)C(=O)O; Aib = CC(C)(N)C(=O)O

B1: SEQ ID NO: 97 (peptide)
peptide: cyclo([Bip(4'-COOH)][Ala(1-bicyclo(1.1.1)pentyl)][Phe(4-COOH)]G[Pro(cis-4-F)][Trp(βS-Me,4-F)][αMeS]SW[Aib]SQ[Dab]G[dPro(4R-Bzl(4-F))])
SMILES: C[C@@H](c1c[nH]c2cccc(F)c12)[C@@H]1NC(=O)[C@@H]2C[C@H](F)CN2C(=O)CNC(=O)[C@H](Cc2ccc(C(=O)O)cc2)NC(=O)[C@H](CC23CC(C2)C3)NC(=O)[C@H](Cc2ccc(-c3ccc(C(=O)O)cc3)cc2)NC(=O)[C@H]2C[C@@H](Cc3ccc(F)cc3)CN2C(=O)CNC(=O)[C@H](CCN)NC(=O)[C@H](CCC(N)=O)NC(=O)[C@H](CO)NC(=O)C(C)(C)NC(=O)[C@H](Cc2c[nH]c3ccccc23)NC(=O)[C@H](CO)NC(=O)[C@](C)(CO)NC1=O
B2: SEQ ID NO: 98 (peptide)
peptide: cyclo([Bip(4'-COOH)][Ala(1-bicyclo(1.1.1)pentyl)][3Pal4CO2H]G[Pro(cis-4-F)][Trp(βS-Me,4-F)][Aib]EW[Aib][Ala(pyrimidin-5-yl)]Q[Dab]G[dPro(4R-Bzl(4-F))])
SMILES: C[C@@H](c1c[nH]c2cccc(F)c12)[C@@H]1NC(=O)[C@@H]2C[C@H](F)CN2C(=O)CNC(=O)[C@H](Cc2ccc(C(=O)O)nc2)NC(=O)[C@H](CC23CC(C2)C3)NC(=O)[C@H](Cc2ccc(-c3ccc(C(=O)O)cc3)cc2)NC(=O)[C@H]2C[C@@H](Cc3ccc(F)cc3)CN2C(=O)CNC(=O)[C@H](CCN)NC(=O)[C@H](CCC(N)=O)NC(=O)[C@H](Cc2cncnc2)NC(=O)C(C)(C)NC(=O)[C@H](Cc2c[nH]c3ccccc23)NC(=O)[C@H](CCC(=O)O)NC(=O)C(C)(C)NC1=O
B3: SEQ ID NO: 129 (peptide)
peptide: cyclo([Bip(4'-COOH)][4Pal][Phe(4-COOH)]G[Pro(cis-4-F)][Trp(βS-Me,4-F)][αMeDab]SW[Aib][Ala(pyrimidin-5-yl)]Q[Dab]G[dPro(4R-Bzl(4-F))])
modifications: ring closure inferred; not fully specified (bridges); printed as Bip4CO2H-4Pal-Phe4COOH-G-Proc4F-SbMeW4F-aMeDab-S-W-Aib-PyrimAla-Q-Dab-G-dProc4Bn4F
B4: SEQ ID NO: 96 (peptide)
peptide: cyclo([Bip(4'-COOH)][Ala(1-bicyclo(1.1.1)pentyl)][Phe(4-COOH)]G[Pro(cis-4-F)][Trp(βS-Me,4-F)][Aib]EW[Aib][Dap]QSG[dPro(4R-(4-pyridylmethyl))])
SMILES: C[C@@H](c1c[nH]c2cccc(F)c12)[C@@H]1NC(=O)[C@@H]2C[C@H](F)CN2C(=O)CNC(=O)[C@H](Cc2ccc(C(=O)O)cc2)NC(=O)[C@H](CC23CC(C2)C3)NC(=O)[C@H](Cc2ccc(-c3ccc(C(=O)O)cc3)cc2)NC(=O)[C@H]2C[C@@H](Cc3ccncc3)CN2C(=O)CNC(=O)[C@H](CO)NC(=O)[C@H](CCC(N)=O)NC(=O)[C@H](CN)NC(=O)C(C)(C)NC(=O)[C@H](Cc2c[nH]c3ccccc23)NC(=O)[C@H](CCC(=O)O)NC(=O)C(C)(C)NC1=O
B5: SEQ ID NO: 127 (peptide)
peptide: cyclo([Bip(4'-COOH)][4Pal][Phe(4-COOH)]G[cisHyp][Trp(βS-Me,4-F)][Aib]SW[Aib][Ala(pyrimidin-5-yl)]Q[Dab]G[dPro(4R-Bzl(4-F))])
modifications: ring closure inferred; not fully specified (bridges); printed as Bip4CO2H-4Pal-Phe4COOH-G-Proc4OH-SbMeW4F-Aib-S-W-Aib-PyrimAla-Q-Dab-G-dProc4Bn4F
B6: SEQ ID NO: 99 (peptide)
peptide: cyclo([F4bcpA][Ala(1-bicyclo(1.1.1)pentyl)][Phe(4-COOH)]G[Pro(cis-4-F)][Trp(βS-Me,4-F)][Aib]EW[Aib][Ala(pyrimidin-5-yl)]Q[Dab]G[dPro(4R-Bzl(4-F))])
SMILES: C[C@@H](c1c[nH]c2cccc(F)c12)[C@@H]1NC(=O)[C@@H]2C[C@H](F)CN2C(=O)CNC(=O)[C@H](Cc2ccc(C(=O)O)cc2)NC(=O)[C@H](CC23CC(C2)C3)NC(=O)[C@H](Cc2ccc(C34CC(C(=O)O)(C3)C4)cc2)NC(=O)[C@H]2C[C@@H](Cc3ccc(F)cc3)CN2C(=O)CNC(=O)[C@H](CCN)NC(=O)[C@H](CCC(N)=O)NC(=O)[C@H](Cc2cncnc2)NC(=O)C(C)(C)NC(=O)[C@H](Cc2c[nH]c3ccccc23)NC(=O)[C@H](CCC(=O)O)NC(=O)C(C)(C)NC1=O
B7: SEQ ID NO: 128 (peptide)
peptide: cyclo([Bip(4'-COOH)][4Pal][Phe(4-COOH)]G[Pro(cis-4-F)][Trp(βS-Me,4-F)][Aib]SW[d(αMeD)][Ala(pyrimidin-5-yl)]Q[Dab]G[dPro(4R-Bzl(4-F))])
modifications: ring closure inferred; not fully specified (bridges); printed as Bip4CO2H-4Pal-Phe4COOH-G-Proc4F-SbMeW4F-Aib-S-W-daMeD-PyrimAla-Q-Dab-G-dProc4Bn4F

How the values were obtained:
[1] = molecular target: Recombinant human IL-1β (BioLegend 579404) (human, UniProt P01584 117-269); assay: cell-based or functional assay
[2] = molecular target: Recombinant human IL-1β (BioLegend 579404) (human, UniProt P01584 117-269); assay: cell-based or functional assay; remark: listed apart in the source

Row | Binder | MRC5 IC50 [1] [nM] | MRC5 IC50 [2] [nM]
1 | cyclo([Bip(4'-COOH)][4Pal][Phe(4-COOH)]G[Pro(cis-4-F)][Trp(βS-Me,4-F)][Aib]EW[Aib][Ala(morpholin-4-yl)]QSG[dPro(4R-Bzl(4-F))]) (ring closure inferred) [SEQ ID NO: 124] | 0.018 | –
2 | B1 | – | 0.036
3 | B2 | – | 0.058
4 | B3 | 0.019 | –
5 | B4 | – | 0.067
6 | B5 | 0.013 | –
7 | cyclo([Bip(4'-COOH)][4Pal][Phe(4-COOH)]G[Pro(cis-4-F)][Trp(βS-Me,4-F)][Aib]EW[Aib][Ala(morpholin-4-yl)]QSG[dPro(4R-Bzl(4-F))]) (ring closure inferred) [SEQ ID NO: 125] | 0.041 | –
8 | cyclo([Bip(4'-COOH)][4Pal][Phe(4-COOH)]G[Pro(cis-4-F)][Trp(βS-Me,4-F)][Aib]EW[Aib][Ala(piperazin-1-yl)]QSG[dPro(4R-Bzl(4-F))]) (ring closure inferred) [SEQ ID NO: 122] | 0.019 | –
9 | B6 | – | 0.031
10 | cyclo([Bip(4'-COOH)][4Pal][Phe(4-COOH)]G[Pro(cis-4-F)][Trp(βS-Me,4-F)][Aib]EW[Aib][Ala(morpholin-4-yl)]Q[Dab]G[dPro(4R-Bzl(4-F))]) (ring closure inferred) [SEQ ID NO: 123] | 0.017 | –
11 | B7 | 0.009 | –
12 | cyclo([Bip(4'-COOH)][4Pal][Phe(4-COOH)]G[Pro(cis-4-F)][Trp(βS-Me,4-F)][Aib]EW[Aib][Ala(piperidin-4-yl)]QSG[dPro(4R-Bzl(4-F))]) (ring closure inferred) [SEQ ID NO: 121] | 0.029 | –
13 | cyclo([Bip(4'-COOH)][4Pal][Phe(4-COOH)]G[Pro(cis-4-F)][Trp(βS-Me,4-F)][Aib]EW[Aib][Ala(morpholin-4-yl)]Q[Dab]G[dPro(4R-Bzl(4-F))]) (ring closure inferred) [SEQ ID NO: 126] | 0.022 | –
